What was measured:
[1] = molecular target: HDAC7 catalytic domain (residues 449–952) (human) (UniProt Q8WUI4); assay: ITC; HDAC7 at 50 µM in the cell, 25 °C; 26 injections of 1.5 µl of SMRT(1255–1452) wild type or alanine mutant at 300 µM; 50 mM KH2PO4/K2HPO4 pH 6.5, 100 mM KCl, 1 mM DTT, 1 mM β-ME; Kd values approximate (noise, aggregation of HDAC7)
[2] = molecular target: HDAC7 catalytic domain (residues 449–952), wild type, purified (human) (UniProt Q8WUI4); assay: ITC; ITC200, HDAC7 50 µM in the cell, SMRT(1255–1452) wild type or alanine mutants 300 µM injected; 50 mM KH2PO4/K2HPO4 pH 6.5, 100 mM KCl, 1 mM DTT, 1 mM β-ME; 25 °C; hampered by precipitation of HDAC7
[3] = molecular target: GST-SMRT (1358–1391) R1381A (human); assay: pull-down; purified GST-peptide or GST control on glutathione sepharose beads, incubated 2 h at 4 °C with supernatant of an E. coli HDAC7 expression lysate; washes with PBS pH 7.3, 3 mM DTT, 0.05% Tween 20, 500 mM NaCl; anti-His western blot
SMRT(1255-1452) (human) [4] = molecular target: SMRT(1255-1452) (human) (UniProt Q9Y618); assay: MST; Monolith NT.115, SMRT(1255–1452) labelled with NT647, HDAC7 or HDAC7 C535A/H541A 20 nM to 20 µM; 25 mM Tris pH 8.0, 10 mM MgCl2, 150 mM KCl, 0.5% Tween-20; room temperature
SMRT(1255-1452) (human) [5] = molecular target: SMRT(1255-1452) (human) (UniProt Q9Y618); assay: SPR; Biacore 3000, SMRT(1255–1452) amine-coupled to a CM5 chip (5500 RU), HDAC7 injected at 500 nM to 8 µM; 50 mM KH2PO4/K2HPO4 pH 6.5, 100 mM KCl, 1 mM DTT; two-step (three-state) model, overall apparent Kd
SMRT(1255-1452) (human) [6] = molecular target: SMRT(1255-1452) (human) (UniProt Q9Y618); assay: NMR titration; 15N-1H HSQC of labelled SMRT(1255–1452) titrated with unlabeled HDAC7 (1:0.72, 1:2.2, 1:3.8) or mixed with HDAC7 C535A/H541A (40 µM:144 µM, 1:3.6); peak intensities; 50 mM potassium phosphate, 100 mM KCl, 1 mM DTT, pH 6.5, 25 °C
SMRT(1255-1452) (human) [7] = molecular target: SMRT(1255-1452) (human) (UniProt Q9Y618); assay: NMR titration; 15N-labelled SMRT(1255-1452) with 0.72, 2.2 and 3.8 molar equivalents of unlabelled wt-HDAC7; relative HSQC peak intensities fitted to a bimolecular binding equation; 25 °C, 50 mM potassium phosphate pH 6.5, 100 mM KCl, 1 mM DTT; rough estimates, HDAC7 precipitated

Molecule “SMRT(1255-1452) K1384A (from UniProt Q9Y618 1255-1452) (domain or fragment)” has a Kd [1] of 43 µM.

For “SMRT(1255–1452) (from UniProt Q9Y618 1255-1452) (domain or fragment)”, the Kd [2] was 14.1 µM.

“SMRT(1255-1452) E1376A (from UniProt Q9Y618 1255-1452) (domain or fragment)” was tested, and the Kd [1] was 34 µM.

With “SMRT(1255-1452) L1386A (from UniProt Q9Y618 1255-1452) (domain or fragment)” the Kd [1] was 28 µM.

With “SMRT(1255–1452) R1381A (from UniProt Q9Y618 1255-1452) (domain or fragment)” the fold reduction of affinity against wild-type SMRT(1255–1452) [2] was 4 fold.

Work on “SMRT(1255-1452) V1372A (from UniProt Q9Y618 1255-1452) (domain or fragment)” yielded a Kd [1] of 37 µM.

“SMRT(1255-1452) L1379A (from UniProt Q9Y618 1255-1452) (domain or fragment)” showed a Kd [1] of 7.5 µM.

“SMRT(1255-1452) R1381A (from UniProt Q9Y618 1255-1452) (domain or fragment)” showed a Kd [1] of 55 µM.

“SMRT(1255-1452) R1360A (from UniProt Q9Y618 1255-1452) (domain or fragment)” was tested, and the Kd [1] was 19 µM.

B1: HDAC7 (residues 449–952), wild type, hexahistidine-tagged, in E. coli expression lysate (domain or fragment)
chain: LLWEQQRLAGRLPRGSTGDTVLLPLAQGGHRPLSRAQSSPAAPASLSAPEPASQARVLSSSETPARTLPFTTGLIYDSVMLKHQCSCGDNSRHPEHAGRIQSIWSRLQERGLRSQCECLRGRKASLEELQSVHSERHVLLYGTNPLSRLKLDNGKLAGLLAQRMFVMLPCGGVGVDTDTIWNELHSSNAARWAAGSVTDLAFKVASRELKNGFAVVRPPGHHADHSTAMGFCFFNSVAIACRQLQQQSKASKILIVDWDVHHGNGTQQTFYQDPSVLYISLHRHDDGNFFPGSGAVDEVGAGSGEGFNVNVAWAGGLDPPMGDPEYLAAFRIVVMPIAREFSPDLVLVSAGFDAAEGHPAPLGGYHVSAKCFGYMTQQLMNLAGGAVVLALEGGHDLTAICDASEACVAALLGNRVDPLSEEGWKQKPNLNAIRSLEAVIRVHSKYWGCMQRLASCPDSWVPRVPGADKEEVEAVTALASLSVGILAEDRPSEQLVEEEEPMNL
For B1, the fold reduction of binding against wild-type GST-SMRT (1358–1391) [3] was 4 fold.

B2: HDAC7 catalytic domain (residues 449–952), wild type, purified (domain or fragment)
chain: B1 chain
In the case of B2, the Kd (SMRT(1255-1452) (human) [4]) is reported as 2.8 µM, the Kd (SMRT(1255-1452) (human) [5]) is reported as 2.1 µM and the Kd (SMRT(1255-1452) (human) [6]) is reported as less than 40 µM.

B3: HDAC7 catalytic domain (residues 449–952) (domain or fragment)
chain: B1 chain
B3 showed a Kd (SMRT(1255-1452) (human) [7]) of 19 µM.
